# Reference: IntAct's records for PubMed 12681510
# B1: Rho guanine nucleotide exchange factor 1 (Homo sapiens), Q92888 (parent)
# chain: MEDFARGAASPGPSRPGLVPVSIIGAEDEDFENELETNSEEQNSQFQSLEQVKRRPAHLMALLQHVALQFEPGPLLCCLHADMLGSLGPKEAKKAFLDFYHSFLEKTAVLRVPVPPNVAFELDRTRADLISEDVQRRFVQEVVQSQQVAVGRQLEDFRSKRLMGMTPWEQELAQLEAWVGRDRASYEARERHVAERLLMHLEEMQHTISTDEEKSAAVVNAIGLYMRHLGVRTKSGDKKSGRNFFRKKVMGNRRSDEPAKTKKGLSSILDAARWNRGEPQVPDFRHLKAEVDAEKPGATDRKGGVGMPSRDRNIGAPGQDTPGVSLHPLSLDSPDREPGADAPLELGDSSPQGPMSLESLAPPESTDEGAETESPEPGDEGEPGRSGLELEPEEPPGWRELVPPDTLHSLPKSQVKRQEVISELLVTEAAHVRMLRVLHDLFFQPMAECLFFPLEELQNIFPSLDELIEVHSLFLDRLMKRRQESGYLIEEIGDVLLARFDGAEGSWFQKISSRFCSRQSFALEQLKAKQRKDPRFCAFVQEAESRPRCRRLQLKDMIPTEMQRLTKYPLLLQSIGQNTEEPTEREKVELAAECCREILHHVNQAVRDMEDLLRLKDYQRRLDLSHLRQSSDPMLSEFKNLDITKKKLVHEGPLTWRVTKDKAVEVHVLLLDDLLLLLQRQDERLLLKSHSRTLTPTPDGKTMLRPVLRLTSAMTREVATDHKAFYVLFTWDQEAQIYELVAQTVSERKNWCALITETAGSLKVPAPASRPKPRPSPSSTREPLLSSSENGNGGRETSPADARTERILSDLLPFCRPGPEGQLAATALRKVLSLKQLLFPAEEDNGAGPPRDGDGVPGGGPLSPARTQEIQENLLSLEETMKQLEELEEEFCRLRPLLSQLGGNSVPQPGCT
# Variants of: B1
# Conditions: with gna13_human GNA13, Q14344
# gna13_human GNA13, Q14344, sequence (Q14344 whole entry): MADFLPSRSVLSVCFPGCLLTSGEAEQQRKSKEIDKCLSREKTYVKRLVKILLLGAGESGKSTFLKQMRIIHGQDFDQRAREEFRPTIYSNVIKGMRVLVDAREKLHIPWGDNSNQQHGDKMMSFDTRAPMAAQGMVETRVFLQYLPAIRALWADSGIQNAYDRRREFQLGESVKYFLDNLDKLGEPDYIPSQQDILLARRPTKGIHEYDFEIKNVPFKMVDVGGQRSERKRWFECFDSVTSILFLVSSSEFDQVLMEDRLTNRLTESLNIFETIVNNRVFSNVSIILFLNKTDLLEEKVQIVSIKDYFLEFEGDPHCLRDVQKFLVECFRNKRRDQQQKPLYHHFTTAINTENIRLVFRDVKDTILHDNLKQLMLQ
row,effect of a mutation on the interaction,Variant
1,decreasing interaction,E27A;E29A

# Variants of: B1
# Conditions: with gna13_human GNA13, Q14344
# Remark: another data set of the same source
row,effect of a mutation on the interaction,Variant
1,decreasing interaction,E27A;E29A
